Assay results: patent US20180127504A1 (ACADEMIA SINICA, published 2018)
Where a chain is given by its changes, count along the chain named.

T1: VEGFR2(M2) (human, UniProt P35968 20-813)
T1 construct: Expressed on 293T cells; single substitutions derived from the printed replacement of the seven-residue stretch
T1 chain: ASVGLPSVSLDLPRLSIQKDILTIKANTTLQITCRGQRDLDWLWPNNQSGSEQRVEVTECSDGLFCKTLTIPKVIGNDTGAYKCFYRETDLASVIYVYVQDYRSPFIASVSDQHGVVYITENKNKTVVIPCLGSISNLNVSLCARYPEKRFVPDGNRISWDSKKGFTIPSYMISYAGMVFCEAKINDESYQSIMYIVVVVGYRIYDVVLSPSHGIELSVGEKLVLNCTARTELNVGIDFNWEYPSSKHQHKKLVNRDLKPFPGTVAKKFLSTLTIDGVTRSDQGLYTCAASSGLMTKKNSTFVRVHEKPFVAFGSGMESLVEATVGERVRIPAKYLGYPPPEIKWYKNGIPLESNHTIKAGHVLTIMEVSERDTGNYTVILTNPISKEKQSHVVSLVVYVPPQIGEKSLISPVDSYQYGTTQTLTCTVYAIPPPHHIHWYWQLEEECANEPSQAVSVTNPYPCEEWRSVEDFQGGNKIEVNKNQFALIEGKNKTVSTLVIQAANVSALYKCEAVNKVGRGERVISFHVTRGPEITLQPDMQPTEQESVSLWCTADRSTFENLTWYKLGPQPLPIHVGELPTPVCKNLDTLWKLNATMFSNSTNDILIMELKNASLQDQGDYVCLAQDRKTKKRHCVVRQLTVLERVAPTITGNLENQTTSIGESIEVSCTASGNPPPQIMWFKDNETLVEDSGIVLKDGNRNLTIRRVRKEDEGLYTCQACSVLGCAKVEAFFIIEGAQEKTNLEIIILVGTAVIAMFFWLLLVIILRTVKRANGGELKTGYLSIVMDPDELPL

T2: VEGFR2(M1) (human, UniProt P35968 20-813)
T2 construct: Expressed on 293T cells; single substitutions derived from the printed replacement of the six-residue stretch; also called VEGFR2-M1 mutant protein
T2 chain: T1 chain with N240T, E242H, Y243S, S245P, P260T, F261Q, P262S, T264S, V265E, A266M

B1: R2S8 (scFv, V domains shown)
VH: QVQLVQSGGGLVKPGGSLRLSCAASGFTFSSYSMSWVRQAPGKGLEWVSSISSSSSYIYYADSVKGRFTISRDNAKNSLYLQMNSLRAEDTAVYYCARSTDAFDIWGQGTMVTVSS
VL: DIVMTQSPSSLSASVGDRVTITCRASQRISNYLNWYQHKSGEDPKLLIYAASSLQSGVPSRFSGSGSGTDFTLTISSLQPEDFATYYCQQYDRYPPTFGQGTKLEIK
notes: also called soluble anti-VEGFR2 scFv from phage clone R2PC8
B2: R2S12 (scFv, V domains shown)
VH: QVNLRESGGGLVKPGGSLRLSCAASGFTFGSYTMNWVRQAPGKGLEWVASITSGSSYIFYTDSVKGRFTISRDNSRSSLFLQMNSLRAEDTAIYYCARGSASAFDIWGQGTMVTVSS
VL: DIQMTQSPSSLSASVGDRVTITCKASDDIINYLNWYQQKPGEAPKLLIYDASILETGVPSRFSGSGSGTDFTFTISSLQPEDIATYYCQQYDILPLTFGGGTKLEIK
notes: Soluble scFv made in E. coli HB2151 from phage clone R2PC12, with E tag; also called soluble anti-VEGFR2 scFv from phage clone R2PC12
B3: R2S28 (scFv, V domains shown)
VH: EVQLVESGGALVQPGGSLRLSCVGSEFTFSHYNLHWVRQAPGKGLEWLAVISDDGRNKYYGDSVKGRFTISRDNSKNTLYLQMNGLRAEDTAVYYCARVPTVWRGGVYDIWGQGTMVTVSS
VL: EIVLTQSPATLSLSPGERATLSCRASQSVGSYLAWYQQRPGQPPRLLIYDASNRATGVAARFSGSGSGTDFTLTIDSLEAEDAATYYCHQSSSLPRTFGQGTKLEIK
notes: also called soluble anti-VEGFR2 scFv from phage clone R2PC28
B4: R2PC8 (scFv, V domains shown)
VH: B1 VH
VL: B1 VL
notes: also called anti-VEGFR2 scFv phage clone 8
B5: R2PC12 (scFv, V domains shown)
VH: B2 VH
VL: B2 VL
notes: also called anti-VEGFR2 scFv phage clone 12
B6: R2PC28 (scFv, V domains shown)
VH: B3 VH
VL: B3 VL
notes: also called anti-VEGFR2 scFv phage clone 28
B7: R2PC29 (scFv, V domains shown)
VH: QVQLQQSGAEMKKSGSSVKVSCKASGGNFISKGISWVRQAPGQGLEWMGGIIPLFGTGNYAQKFQGRVTITADESTTTVYLQLTSLTPEDTAMYFCATADVDYSDSLEAFDMWGQGTMVTVSS
VL: DIVMTQSPSSLSASVGDRVTITCRASQSINNYLNWYQQKPGKAPNLLIYGASSLQSGVPSRFRGSGSGTDFTLTISSLQPEDFATYYCQQSYSTPLFGQGTKLEIK
notes: also called anti-VEGFR2 scFv phage clone 29
B8: R2S29 (scFv, V domains shown)
VH: B7 VH
VL: B7 VL
notes: also called soluble anti-VEGFR2 scFv from phage clone R2PC29

Each binder was assayed against T3, VEGFR2(del3) (human, UniProt P35968 20-813) (assay: immunofluorescent staining of transfected 293T cells).
T3 construct: Expressed on 293T cells; also called VEGFR2 with domain 3 deleted
B1: no binding. B2: no binding. B3: binds.

What follows are binders tested against T4, VEGFR2(2-7) (human, UniProt P35968 111-813) in the same assay as above.
T4 construct: also called domains 2-7, Ala111 to Leu813
B1: binds. B2: binds. B3: no binding.

Target: T1, VEGFR2(M2)
Test: as above
B1: binds. B2: binds. B3: binds.

These binders were tested against T5, VEGFR2(del2-3) (human, UniProt P35968 20-813) in the same assay as above.
T5 construct: Expressed on 293T cells; also called VEGFR2 with domains 2 and 3 deleted
B1: no binding. B2: no binding. B3: binds.

What follows are binders tested against T6, VEGFR2(1-7) (human, UniProt P35968 20-813) in the same assay as above.
T6 construct: Expressed on 293T cells; also called full-length extracellular region of VEGFR2, domains 1-7, Met1 to Leu813
B1: binds. B2: binds. B3: binds.

Target: T2, VEGFR2(M1)
Test: as above
B1: no binding. B2: no binding. B3: binds.

These binders were tested against T7, VEGFR2(4-7) (human, UniProt P35968 321-813) in the same assay as above.
T7 construct: also called domains 4-7, Phe321 to Leu813
B1: no binding. B2: no binding. B3: no binding.

The binders below were run against T8, VEGFR2 on the cell surface of human umbilical vein endothelial cells (HUVEC) (human, UniProt P35968 20-1356) (assay: flow cytometry on HUVECs, 1x10^10 cfu phage, anti-M13 and PE-labelled secondary antibody).
T8 construct: Endogenous receptor of human cells; also called cell-surface VEGFR2; cellular VEGFR2
Procedure: About 1×10⁴ HUVEC were incubated with the selected anti-VEGFR2 phage clones at 4° C. for 1 hour in FACS buffer (PBS containing 1% fetal bovine serum). After the cells were washed with FACS buffer, they were first incubated with mouse anti-M13 phage Ab for 1 hr at 4° C., and then with R-phycoerythrin-conjugated goat anti-mouse IgG (Jackson Immuno Research) for 30 min at 4° C. Flow cytometry was performed with a FACSCantoII (BD), and emission fluorescence intensity was measured with FACS Diva software (BD) to quantitatively compare binding affinities.
(§1) After four rounds of affinity selection (biopanning), the titer of bound phage increased by as much as 3,455-fold (FIG. 1A).
B4: binds. B5: binds. B6: binds. B7: binds.

These binders were tested against T9, c-Met-Fc control protein (UniProt P08581 25-932, limits assumed) (assay: phage ELISA on coated MET-Fc, anti-M13-HRP detection).
T9 construct: Bought control protein; also called Met-Fc (R&D); c-Met-Fe; not shown: Fc part of the bought fusion protein; not described
T9 sequence (P08581 25-932 limits assumed): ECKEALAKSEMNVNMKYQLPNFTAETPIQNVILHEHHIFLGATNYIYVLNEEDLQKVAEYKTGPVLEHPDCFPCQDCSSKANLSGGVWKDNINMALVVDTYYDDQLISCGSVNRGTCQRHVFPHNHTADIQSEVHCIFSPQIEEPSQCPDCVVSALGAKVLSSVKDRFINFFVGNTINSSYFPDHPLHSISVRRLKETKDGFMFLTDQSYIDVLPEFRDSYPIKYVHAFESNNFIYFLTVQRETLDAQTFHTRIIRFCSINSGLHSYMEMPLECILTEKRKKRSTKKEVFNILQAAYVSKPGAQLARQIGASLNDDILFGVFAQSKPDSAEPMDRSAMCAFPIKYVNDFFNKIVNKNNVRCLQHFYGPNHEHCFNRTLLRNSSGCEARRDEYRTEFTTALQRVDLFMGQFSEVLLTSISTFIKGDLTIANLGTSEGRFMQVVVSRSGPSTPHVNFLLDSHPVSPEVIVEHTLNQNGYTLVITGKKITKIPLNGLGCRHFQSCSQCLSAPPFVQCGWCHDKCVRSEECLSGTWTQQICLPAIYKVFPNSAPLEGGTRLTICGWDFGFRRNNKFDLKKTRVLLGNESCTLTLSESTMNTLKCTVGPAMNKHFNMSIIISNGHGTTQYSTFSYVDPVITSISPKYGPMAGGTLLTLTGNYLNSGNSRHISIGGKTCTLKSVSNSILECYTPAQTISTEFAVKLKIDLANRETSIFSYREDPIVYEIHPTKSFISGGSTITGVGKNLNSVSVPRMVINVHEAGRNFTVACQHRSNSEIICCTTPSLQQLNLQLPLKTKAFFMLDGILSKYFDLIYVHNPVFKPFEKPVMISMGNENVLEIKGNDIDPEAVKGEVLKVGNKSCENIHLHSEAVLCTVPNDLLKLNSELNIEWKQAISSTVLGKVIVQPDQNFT
Procedure: The selected phages were further examined by ELISA screening. The 96-well plates were coated with […] of VEGFR2-Fc, Met-Fc (R&D), or BSA (Sigma) protein in 0.1 M sodium bicarbonate overnight at 4° C. After blocking with 1% BSA in PBS (w/v) for 2 hr at room temperature, 70-randomly selected phage clones were added to the plates at a 1:2 dilution in 1% BSA, and incubated for 1 hr at room temperature. Following washes with PBST, the plates were incubated with a 1:2000 dilution of horseradish peroxidase (HRP)-conjugated mouse anti-M13 phage antibody (GE) for 1 hr. After washing with PBST, the colorimetric reaction was developed with the peroxidase substrate ortho-phenylenediamine (OPD; Sigma) plus H₂O₂ for 15 min, and then terminated by the addition of 3 N HCl. The absorbance at 490 nm was determined using a microplate reader (SpectraMax, Molecular Devices). Plasmid DNA of positive clones were isolated and sequenced using the pCANTAB5 sequencing primer set.
as §1
B4: no binding (tested: 1x10^9 cfu). B5: no binding (tested: 1x10^9 cfu). B6: no binding (tested: 1x10^9 cfu). B7: no binding (tested: 1x10^9 cfu).

Each binder was assayed against T10, VEGFR2 on tumor vascular endothelium (frozen sections of human lung cancer specimens) (human, UniProt P35968) (assay: immunofluorescence on frozen sections of human lung cancer, scFv detected by anti-E tag and rhodamine secondary antibody, CD31 co-staining).
T10 construct: endogenous, on CD31-positive tumor vascular endothelium in frozen tissue sections; also called human tumor vasculature
B1: binds. B2: binds. B3: binds. B8: binds.
